How the values were obtained:
[1] = target: Human Siglec-9-Fc (recombinant human Siglec-9 extracellular domain Q18-G348 fused to human IgG1 Fc) (human); assay: BLI binning, hSiglec-9-Fc on AHC sensor; competitor bound first (row): 2F15
[2] = target: Human Siglec-9-Fc (recombinant human Siglec-9 extracellular domain Q18-G348 fused to human IgG1 Fc) (human); assay: BLI binning, hSiglec-9-Fc on AHC sensor; competitor bound first (row): 9C15
[3] = target: Human Siglec-9-Fc (recombinant human Siglec-9 extracellular domain Q18-G348 fused to human IgG1 Fc) (human); assay: BLI binning, hSiglec-9-Fc on AHC sensor; competitor bound first (row): 9D21
[4] = target: Human Siglec-9-Fc (recombinant human Siglec-9 extracellular domain Q18-G348 fused to human IgG1 Fc) (human); assay: BLI binning, hSiglec-9-Fc on AHC sensor; competitor bound first (row): 12G23
[5] = target: Human Siglec-9-Fc (recombinant human Siglec-9 extracellular domain Q18-G348 fused to human IgG1 Fc) (human); assay: BLI binning, hSiglec-9-Fc on AHC sensor; competitor bound first (row): 12L19
[6] = target: Human Siglec-9-Fc (recombinant human Siglec-9 extracellular domain Q18-G348 fused to human IgG1 Fc) (human); assay: BLI binning, hSiglec-9-Fc on AHC sensor; competitor bound first (row): 12P18
[7] = target: Human Siglec-9-Fc (recombinant human Siglec-9 extracellular domain Q18-G348 fused to human IgG1 Fc) (human); assay: BLI binning, hSiglec-9-Fc on AHC sensor; competitor bound first (row): 13J19
[8] = target: Human Siglec-9-Fc (recombinant human Siglec-9 extracellular domain Q18-G348 fused to human IgG1 Fc) (human); assay: BLI binning, hSiglec-9-Fc on AHC sensor; competitor bound first (row): 13O18
[9] = target: Human Siglec-9-Fc (recombinant human Siglec-9 extracellular domain Q18-G348 fused to human IgG1 Fc) (human); assay: BLI binning, hSiglec-9-Fc on AHC sensor; competitor bound first (row): 3L02 (self)
[10] = target: Human Siglec-9-Fc (recombinant human Siglec-9 extracellular domain Q18-G348 fused to human IgG1 Fc) (human); assay: BLI binning, hSiglec-9-Fc on AHC sensor; competitor bound first (row): 13H10 (printed 13H110)

Human Siglec-9-Fc (recombinant human Siglec-9 extracellular domain Q18-G348 fused to human IgG1 Fc) (human), sequence (chain, as listed by the source limits assumed): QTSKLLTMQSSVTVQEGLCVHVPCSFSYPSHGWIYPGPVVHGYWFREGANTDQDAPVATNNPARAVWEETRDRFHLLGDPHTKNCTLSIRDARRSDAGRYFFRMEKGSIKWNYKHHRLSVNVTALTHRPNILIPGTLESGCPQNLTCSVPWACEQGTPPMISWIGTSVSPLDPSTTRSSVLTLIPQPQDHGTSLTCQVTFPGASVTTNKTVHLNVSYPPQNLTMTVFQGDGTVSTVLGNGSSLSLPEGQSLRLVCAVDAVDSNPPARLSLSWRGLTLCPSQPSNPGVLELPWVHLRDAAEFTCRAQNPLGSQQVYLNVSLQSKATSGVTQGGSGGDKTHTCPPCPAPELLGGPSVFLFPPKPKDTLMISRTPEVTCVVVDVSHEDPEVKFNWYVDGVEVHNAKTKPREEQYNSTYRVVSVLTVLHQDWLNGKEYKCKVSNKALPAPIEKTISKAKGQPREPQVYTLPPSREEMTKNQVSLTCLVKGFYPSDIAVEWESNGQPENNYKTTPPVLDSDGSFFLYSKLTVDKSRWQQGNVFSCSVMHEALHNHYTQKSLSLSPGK

B1: 3L02 (antibody, V domains shown)
VH: DVQLQESGPGMVKPSQSLSLTCTVTGYSITSGYDWHWIRHFPGNKLEWMGYISYSAGTNYNPSLKSRISITHDTSKNHFFLKLNSVTTEDTATYYCAREGLTAYWYFDVWGTGTTVTVSS
VL: DIVMTQSQKFMSTSVGDRVSVTCKASQTVGTNVAWYQQKPGQSPKPLIYSASYRYSGVPDRFTGSGSGTDFTLTISNVQSEDLAEYFCQQYDSFPLTFGSGTKLEIK
[1]
  maximum binding nm shift: 0.099 nm
[2]
  maximum binding nm shift: 0.14 nm
[3]
  maximum binding nm shift: 0.188 nm
[4]
  maximum binding nm shift: 0.031 nm
[5]
  maximum binding nm shift: -0.053 nm
[6]
  maximum binding nm shift: 0.214 nm
[7]
  maximum binding nm shift: 0.085 nm
[8]
  maximum binding nm shift: 0.091 nm
[9]
  maximum binding nm shift: 0 nm
[10]
  maximum binding nm shift: -0.064 nm

— patent US20220396627A1
